Numbering of substitutions follows the chain as printed.
T1: Cynomolgous monkey (cyno) TF-ECD with His Tag (cynomolgus monkey, UniProt P13726 33-251 (human entry))
T1 construct: also called cyno antigen
T1 chain: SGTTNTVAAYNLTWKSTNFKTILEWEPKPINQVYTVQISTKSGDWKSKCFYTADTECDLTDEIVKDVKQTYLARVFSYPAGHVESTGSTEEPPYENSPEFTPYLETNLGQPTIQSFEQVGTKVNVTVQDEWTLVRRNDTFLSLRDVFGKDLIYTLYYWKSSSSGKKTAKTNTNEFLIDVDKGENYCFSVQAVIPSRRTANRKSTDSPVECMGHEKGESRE

B1: M9 (antibody, V domains shown)
VH: EVQLVQSGAEVKKPGESLRISCKGSGYTFITYWIEWVRQMPGKGLEWMGDILPGSGSTNYNENFKGHVTISADKSISTAYLQWSSLKASDTAMYYCARSGYYGNSGFAYWGQGTLVTVSS
VL: DIVMTQSPDSLAVSLGERATINCKSSQSLLSSGNQKNYLTWYQQKPGQPPKLLIYWASTRESGVPDRFSGSGSGTDFTLTISSLQAEDVAVYYCQNDYTYPLTFGQGTKLEIK
notes: complete MAb; FR4 is its own entry; also called H15/L2
B2: M19 (antibody, V domains shown)
VH: QVQLVQSGAEVKKPGASVKVSCKASGYTFITYWIEWVRQAPGQGLEWMGDILPGSGSTNYNENFKGRVTMTRDTSTSTVYMELSSLRSEDTAVYYCARSGYYGNSGFAYWGQGTLVTVSS
VL: DIVMTQTPLSLSVTPGQPASISCKSSQSLLSSGNQKNYLTWYLQKPGQPPQLLIYWASTRESGVPDRFSGSGSGTDFTLKISRVEAEDVGVYYCQNDYTYPLTFGQGTKLEIK
notes: complete MAb; FR4 is its own entry; also called H16/L5
B3: M58 (antibody, V domains shown)
VH: B1 VH with N61S, E62P, N63S, K65Q
VL: B1 VL
notes: complete MAb; FR4 is its own entry; also called H22/L2
B4: M16 (antibody, V domains shown)
VH: B2 VH
VL: B1 VL
notes: complete MAb; FR4 is its own entry; also called H16/L2
B5: M1584 (antibody, V domains shown)
VH: B1 VH with I30V, S55T, S57Y, N59V, N61S, E62P, N63S, K65Q
VL: B2 VL with S12P, Q17E, P49S
notes: complete MAb; FR4 is its own entry; also called H173/L3
B6: M1607 (antibody, V domains shown)
VH: B1 VH with Y27F, E35A, G54A, G56S, N61S, E62P, N63S, K65Q
VL: B2 VL with S12P, Q17E, P49S
notes: complete MAb; FR4 is its own entry; also called H189/L3; TF7M1607
B7: M1612 (antibody, V domains shown)
VH: B1 VH with I30N, T31P, S55T, S57Y, N61S, E62P, N63S, K65Q
VL: B2 VL with S12P, Q17E, P49S
notes: complete MAb; FR4 is its own entry; also called H133/L3; TF7M1612
B8: M1611 (antibody, V domains shown)
VH: B1 VH with I30G, T31P, S57Y, N59T, N61S, E62P, N63S, K65Q
VL: B2 VL with S12P, Q17E, P49S
notes: complete MAb; FR4 is its own entry; also called H128/L3

biological target: T2, recombinant extracellular domain (ECD) of human TF, amino acid 1-219 of the mature chain, C-terminal His6-tag (human, UniProt P13726 33-251); experiment: Biacore
T2 construct: expressed in a mammalian system; used for ELISA and Biacore; biotinylated by NHS-ester for the Fab ELISA; also called His6-TF-ECD1-219; HumanTF1-219

Row | Kd | Binder
1 | 0.61 nM | B1
2 | 0.41 nM | B2
3 | 0.2 nM | B3
4 | 0.66 nM | B4

Biological target: T1, Cynomolgous monkey (cyno) TF-ECD with …
Experiment: Biacore

Row | Kd | Binder
5 | 1.55 nM | B1
6 | 2.81 nM | B2
7 | 1.18 nM | B3
8 | 1.96 nM | B4

biological target: T2, recombinant extracellular domain (ECD) …; experiment: Biacore; remark: another data set of the same source

Row | Kd | koff | kon | Binder
9 | 0.3 nM | 5.6e-05 s⁻¹ | 184000 M⁻¹ s⁻¹ | B5
10 | 0.61 nM | 5.9e-05 s⁻¹ | 97300 M⁻¹ s⁻¹ | B1
11 | 0.41 nM | 4.1e-05 s⁻¹ | 98800 M⁻¹ s⁻¹ | B2
12 | 0.35 nM | 6e-05 s⁻¹ | 170000 M⁻¹ s⁻¹ | B6
13 | 0.38 nM | 6.3e-05 s⁻¹ | 165000 M⁻¹ s⁻¹ | B7
14 | 0.19 nM | 1.8e-05 s⁻¹ | 94800 M⁻¹ s⁻¹ | B3
15 | 0.31 nM | 5.9e-05 s⁻¹ | 192000 M⁻¹ s⁻¹ | B8
16 | 0.66 nM | 6.7e-05 s⁻¹ | 102000 M⁻¹ s⁻¹ | B4

biological target: T3, endogenous human tissue factor on MDA-MB-231 breast cancer cells (human, UniProt P13726 33-295); experiment: cell-based or functional assay

Row | IL-8 Induction, Ave % inhibition | Binder
17 | 106% | B1
18 | 106% | B2
19 | 106% | B3
20 | 109% | B4

biological target: Innovin, lyophilized recombinant human tissue factor combined with phospholipids (human, UniProt P13726 33-295, limits assumed); experiment: cell-based or functional assay

Row | T½ Max (seconds), coagulation of human plasma | Binder
21 | 199 s | B5
22 | 198 s | B1
23 | 199 s | B2
24 | 152 s | B6
25 | 163 s | B7
26 | 192 s | B3
27 | 154 s | B8
28 | 198 s | B4

biological target: T3, endogenous human tissue factor on …; experiment: cell-based or functional assay; remark: another data set of the same source

Row | % IL-8 Inhibition | Binder
29 | 103% | B1
30 | 87.3% | B2
31 | 88.5% | B3
32 | 98.3% | B4

biological target: T3, endogenous human tissue factor on …; experiment: cell-based or functional assay; remark: another data set of the same source

Row | IC50 (ug/ml), IL-8 induction assay | Binder
33 | 0.332 µg/mL | B5
34 | 0.395 µg/mL | B6
35 | 0.413 µg/mL | B7
36 | 0.398 µg/mL | B8

biological target: T3, endogenous human tissue factor on …; experiment: FACS on MDA-MB-231 cells
Description: This assay is used to detect the direct binding of antibody to endogenouse human TF expressed in breast cancer cells. Prepare four point titrations of the test mAbs in FACS buffer (1% FBS in PBS) in duplicate. Start a titration at 1,000 ng/ml with 1:4 dilutions. […] Unstained cells and secondary antibody, Cy-5 conjugated Goat anti-Human IgG Fc antibody in FACS buffer 1:200, is used as controls and prepared immediately before use.
Using standard tissue culture technique, rinse adherent MDA-MB-231 cells in culture flask with once with PBS (w/o Ca+2/Mg+2). Lift cells with Versene and count the cells and seed 200,000 cells per well in a polystyrene V-bottom plate. FACS Analysis Protocol: Tissue Factor Binding. Pellet the cells in a Allegra X-15R centrifuge at 450×g for 3 minutes at 4° C., resuspend in FACS Buffer (2% FBS in PBS) and plate 200,000 cells per well in 200 uL. Pellet cells at 450×g for 3 minutes at 4° C. Discard supernatants and add 100 uL/well test or control mAbs to designated wells and incubate on ice or at 4° C. for 1 hour (+/−10 minutes). Pellet cells at 450×g for 3 minutes at 4° C. Discard supernatants and wash cells once in FACS buffer. Resuspend cells in 200 uL/well FACS buffer and pellet cells at 450×g for 3 minutes at 4° C. Discard supernatants and add 100 uL/well secondary antibody to designated wells (triterate), and incubate on ice for 1 hour (+/−10 minutes). Pellet cells at 450×g for 3 minutes at 4° C. Discard supernatants and wash cells 2 times in FACS buffer before resuspending the cells in 200 uL/well FACS Buffer (triterate). Pellet cells at 450×g for 3 minutes at 4° C. Discard supernatant and resuspend cells in 100 uL/well CytoFix Buffer. Analyze reactions by flow cytometry (BD FACSArray). The FlowJo Software is used for FACS data analysis by gating the main population of cells in the unstained control well and applying the gate to the whole data set. The data is exported as a table of the geometric mean fluorescence intensity (MFI) in the red channel for the applied gate.

Row | Whole Cell Binding, Ave % | Binder
37 | 107% | B1
38 | 111% | B2
39 | 94% | B3
40 | 109% | B4

biological target: T2, recombinant extracellular domain (ECD) …; experiment: TF-ECD binding ELISA, chemiluminescent

Row | EC50 | Binder
41 | 0.0098 µg/mL | B1
42 | 0.00922 µg/mL | B2
43 | 0.00903 µg/mL | B3
44 | 0.00931 µg/mL | B4

Biological target: T1, Cynomolgous monkey (cyno) TF-ECD with …
Experiment: TF-ECD binding ELISA, chemiluminescent

Row | EC50 | Binder
45 | 0.0199 µg/mL | B1
46 | 0.0296 µg/mL | B2
47 | 0.0198 µg/mL | B3
48 | 0.0234 µg/mL | B4
